Assay results published in publication PMC10397247.
Blank lines part the entries; values can stand above or below the binder they belong to.

Key:
O6 = target: T1, O6; assay: two-hybrid library CCNG1;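 also: natural log of median RNA to DNA barcode read ratio; higher means stronger binding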
T1 chain: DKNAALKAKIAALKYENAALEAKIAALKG

O14 = target: T2, O14; assay: two-hybrid library CCNG1;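 also: natural log of median RNA to DNA barcode read ratio; higher means stronger binding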
T2 chain: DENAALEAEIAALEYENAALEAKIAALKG

O2 = target: T3, O2; assay: two-hybrid library CCNG1;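 also: natural log of median RNA to DNA barcode read ratio; higher means stronger binding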
T3 chain: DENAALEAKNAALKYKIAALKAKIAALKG

O15 = target: T4, O15; assay: two-hybrid library CCNG1;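 also: natural log of median RNA to DNA barcode read ratio; higher means stronger binding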
T4 chain: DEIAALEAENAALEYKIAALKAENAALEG

O7 = target: T5, O7; assay: two-hybrid library CCNG1;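 also: natural log of median RNA to DNA barcode read ratio; higher means stronger binding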
T5 chain: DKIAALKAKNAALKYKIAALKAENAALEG

O9 = target: T6, O9; assay: two-hybrid library CCNG1;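 also: natural log of median RNA to DNA barcode read ratio; higher means stronger binding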
T6 chain: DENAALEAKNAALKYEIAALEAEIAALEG

O8 = target: T7, O8; assay: two-hybrid library CCNG1
T7 chain: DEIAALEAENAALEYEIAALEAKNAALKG

O16 = target: T8, O16; assay: two-hybrid library CCNG1
T8 chain: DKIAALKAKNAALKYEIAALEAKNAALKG

O3 = target: T9, O3; assay: two-hybrid library CCNG1
T9 chain: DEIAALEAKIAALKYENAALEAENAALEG

O4 = target: T10, O4; assay: two-hybrid library CCNG1
T10 chain: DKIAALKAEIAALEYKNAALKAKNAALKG

O13 = target: T11, O13; assay: two-hybrid library CCNG1
T11 chain: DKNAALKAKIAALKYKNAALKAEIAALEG

O12 = target: T12, O12; assay: two-hybrid library CCNG1
T12 chain: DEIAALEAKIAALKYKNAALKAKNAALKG

O5 = target: T13, O5; assay: two-hybrid library CCNG1
T13 chain: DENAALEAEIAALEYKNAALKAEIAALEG

4H967-bH = target: T14, 4H967-bH; assay: two-hybrid library CCNG1
T14 chain: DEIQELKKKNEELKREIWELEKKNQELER

4H3843-bH = target: T15, 4H3843-bH; assay: two-hybrid library CCNG1
T15 chain: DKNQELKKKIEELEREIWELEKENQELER

4H2618-bH = target: T16, 4H2618-bH; assay: two-hybrid library CCNG1
T16 chain: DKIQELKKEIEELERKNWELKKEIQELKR

4H331-bH = target: T17, 4H331-bH; assay: two-hybrid library CCNG1
T17 chain: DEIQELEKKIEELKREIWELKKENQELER

4H607-bH = target: T18, 4H607-bH; assay: two-hybrid library CCNG1
T18 chain: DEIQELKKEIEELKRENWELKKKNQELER

4H883-bH = target: T19, 4H883-bH; assay: two-hybrid library CCNG1
T19 chain: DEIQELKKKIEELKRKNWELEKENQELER

4H908-bH = target: T20, 4H908-bH; assay: two-hybrid library CCNG1
T20 chain: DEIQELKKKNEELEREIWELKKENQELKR

4H2667-bH = target: T21, 4H2667-bH; assay: two-hybrid library CCNG1
T21 chain: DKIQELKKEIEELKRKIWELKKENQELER

4H2610-bH = target: T22, 4H2610-bH; assay: two-hybrid library CCNG1
T22 chain: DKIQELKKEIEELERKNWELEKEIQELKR

4H370-bH = target: T23, 4H370-bH; assay: two-hybrid library CCNG1
T23 chain: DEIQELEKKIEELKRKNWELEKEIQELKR

4H3185-bH = target: T24, 4H3185-bH; assay: two-hybrid library CCNG1
T24 chain: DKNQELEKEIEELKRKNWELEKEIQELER

4H338-bH = target: T25, 4H338-bH; assay: two-hybrid library CCNG1
T25 chain: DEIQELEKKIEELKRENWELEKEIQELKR

4H797-bH = target: T26, 4H797-bH; assay: two-hybrid library CCNG1
T26 chain: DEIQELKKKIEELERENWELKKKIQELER

4H918-bH = target: T27, 4H918-bH; assay: two-hybrid library CCNG1
T27 chain: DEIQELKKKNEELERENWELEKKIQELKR

4H2576-bH = target: T28, 4H2576-bH; assay: two-hybrid library CCNG1
T28 chain: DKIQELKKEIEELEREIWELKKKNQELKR

4H717-bH = target: T29, 4H717-bH; assay: two-hybrid library CCNG1
T29 chain: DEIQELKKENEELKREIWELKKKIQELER

O7-bN = target: T30, O7-bN; assay: two-hybrid library CCNG1
T30 chain: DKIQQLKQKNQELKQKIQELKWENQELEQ

4H2442-bH = target: T31, 4H2442-bH; assay: two-hybrid library CCNG1
T31 chain: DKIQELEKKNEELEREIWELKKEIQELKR

4H918-bN = target: T32, 4H918-bN; assay: two-hybrid library CCNG1
T32 chain: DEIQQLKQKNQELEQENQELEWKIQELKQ

4H3112-bH = target: T33, 4H3112-bH; assay: two-hybrid library CCNG1
T33 chain: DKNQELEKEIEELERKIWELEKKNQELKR

4H2697-bH = target: T34, 4H2697-bH; assay: two-hybrid library CCNG1
T34 chain: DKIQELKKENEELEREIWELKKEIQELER

4H3855-bH = target: T35, 4H3855-bH; assay: two-hybrid library CCNG1
T35 chain: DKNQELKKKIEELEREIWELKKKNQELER

4H3354-bH = target: T36, 4H3354-bH; assay: two-hybrid library CCNG1
T36 chain: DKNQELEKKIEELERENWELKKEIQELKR

4H953-bH = target: T37, 4H953-bH; assay: two-hybrid library CCNG1
T37 chain: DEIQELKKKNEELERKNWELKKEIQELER

4H454-bH = target: T38, 4H454-bH; assay: two-hybrid library CCNG1
T38 chain: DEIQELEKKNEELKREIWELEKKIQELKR

4H568-bH = target: T39, 4H568-bH; assay: two-hybrid library CCNG1
T39 chain: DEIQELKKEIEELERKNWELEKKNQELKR

4H2717-bN = target: T40, 4H2717-bN; assay: two-hybrid library CCNG1
T40 chain: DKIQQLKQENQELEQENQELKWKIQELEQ

4H72-bH = target: T41, 4H72-bH; assay: two-hybrid library CCNG1
T41 chain: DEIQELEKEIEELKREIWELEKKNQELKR

4H4001-bH = target: T42, 4H4001-bH; assay: two-hybrid library CCNG1
T42 chain: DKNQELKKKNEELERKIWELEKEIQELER

4H4001-bN = target: T43, 4H4001-bN; assay: two-hybrid library CCNG1
T43 chain: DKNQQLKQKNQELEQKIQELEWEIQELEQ

4H687-bH = target: T44, 4H687-bH; assay: two-hybrid library CCNG1
T44 chain: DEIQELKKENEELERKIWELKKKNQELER

4H462-bH = target: T45, 4H462-bH; assay: two-hybrid library CCNG1
T45 chain: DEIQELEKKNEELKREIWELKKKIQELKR

4H3782-bH = target: T46, 4H3782-bH; assay: two-hybrid library CCNG1
T46 chain: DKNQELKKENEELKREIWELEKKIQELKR

4H3427-bH = target: T47, 4H3427-bH; assay: two-hybrid library CCNG1
T47 chain: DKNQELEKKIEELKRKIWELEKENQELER

4H1845-bH = target: T48, 4H1845-bH; assay: two-hybrid library CCNG1
T48 chain: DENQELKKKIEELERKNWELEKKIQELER

4H575-bA = target: T49, 4H575-bA; assay: two-hybrid library CCNG1
T49 chain: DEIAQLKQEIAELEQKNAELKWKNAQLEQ

4H2729-bH = target: T50, 4H2729-bH; assay: two-hybrid library CCNG1
T50 chain: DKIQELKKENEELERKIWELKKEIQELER

4H3189-bH = target: T51, 4H3189-bH; assay: two-hybrid library CCNG1
T51 chain: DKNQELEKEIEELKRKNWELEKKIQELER

4H754-bH = target: T52, 4H754-bH; assay: two-hybrid library CCNG1
T52 chain: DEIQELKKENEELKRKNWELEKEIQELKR

4H3606-bH = target: T53, 4H3606-bH; assay: two-hybrid library CCNG1
T53 chain: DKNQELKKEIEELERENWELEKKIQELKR

P5SC2 = target: T54, P5SC2; assay: two-hybrid library CC1; conditions: mean of both orientations
T54 chain: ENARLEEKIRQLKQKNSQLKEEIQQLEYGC

P6SC2 = target: T55, P6SC2; assay: two-hybrid library CC1; conditions: mean of both orientations
T55 chain: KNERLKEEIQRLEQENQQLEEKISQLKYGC

P5SC1 = target: T56, P5SC1; assay: two-hybrid library CC1; conditions: mean of both orientations
T56 chain: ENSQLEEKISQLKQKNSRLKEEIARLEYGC

P5 = target: T57, P5; assay: two-hybrid library CC1; conditions: mean of both orientations
T57 chain: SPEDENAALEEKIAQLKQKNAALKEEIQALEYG

P3mS = target: T58, P3mS; assay: two-hybrid library CC1
T58 chain: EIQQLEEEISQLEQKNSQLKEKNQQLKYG

P6mS = target: T59, P6mS; assay: two-hybrid library CC1; conditions: mean of both orientations
T59 chain: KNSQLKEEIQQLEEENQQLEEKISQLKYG

P8 = target: T60, P8; assay: two-hybrid library CC1; conditions: mean of both orientations
T60 chain: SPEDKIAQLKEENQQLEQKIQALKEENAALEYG

P6 = target: T61, P6; assay: two-hybrid library CC1; conditions: mean of both orientations
T61 chain: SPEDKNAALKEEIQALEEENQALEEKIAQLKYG

P8mS = target: T62, P8mS; assay: two-hybrid library CC1; conditions: mean of both orientations
T62 chain: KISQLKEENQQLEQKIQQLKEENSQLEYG

P9 = target: T63, P9; assay: two-hybrid library CC1; conditions: mean of both orientations
T63 chain: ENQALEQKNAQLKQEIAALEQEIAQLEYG

P6SC1 = target: T64, P6SC1; assay: two-hybrid library CC1; conditions: mean of both orientations
T64 chain: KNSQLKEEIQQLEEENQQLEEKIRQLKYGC

P4mS = target: T65, P4mS; assay: two-hybrid library CC1; conditions: mean of both orientations
T65 chain: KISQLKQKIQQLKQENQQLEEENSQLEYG

P5mS = target: T66, P5mS; assay: two-hybrid library CC1; conditions: mean of both orientations
T66 chain: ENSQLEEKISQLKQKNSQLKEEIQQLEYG

P4 = target: T67, P4; assay: two-hybrid library CC1; conditions: mean of both orientations
T67 chain: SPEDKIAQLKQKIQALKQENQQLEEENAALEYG

P7 = target: T68, P7; assay: two-hybrid library CC1; conditions: mean of both orientations
T68 chain: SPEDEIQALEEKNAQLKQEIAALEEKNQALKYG

P7mS = target: T69, P7mS; assay: two-hybrid library CC1; conditions: mean of both orientations
T69 chain: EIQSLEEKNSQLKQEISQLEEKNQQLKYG

interaction score (O6): -2.27
interaction score (O14): -1.45
interaction score (O2): -2.46
interaction score (O15): -1.36
interaction score (O7): -2.15
interaction score (O9): -1.67
interaction score (O8): -1.51
interaction score (O16): -2.57
interaction score (O3): 0.318
interaction score (O4): -1.08
interaction score (O13): -2.04
interaction score (O12): -2.08
interaction score (O5): -2.03
Binder: DEIAALEAKIAALKYKNAALKAKNAALKG [O12]

interaction score (4H967-bH): -0.406
interaction score (O12): -1.53
Binder: DEIQELKKKNEELKREIWELEKKNQELER [4H967-bH]

interaction score (4H3843-bH): -0.224
interaction score (4H2618-bH): -1.52
interaction score (4H331-bH): -1.2
interaction score (4H607-bH): -2.75
interaction score (4H883-bH): 0.0604
interaction score (4H908-bH): -1
interaction score (4H2667-bH): 0.349
interaction score (4H2610-bH): -0.549
interaction score (4H370-bH): -0.319
interaction score (4H3185-bH): 0.639
interaction score (4H338-bH): -0.243
interaction score (4H797-bH): 0.175
interaction score (4H918-bH): -0.512
interaction score (4H2576-bH): -1.7
interaction score (4H717-bH): 0.319
interaction score (O7-bN): -0.332
interaction score (4H2442-bH): -0.237
interaction score (4H918-bN): -1.11
interaction score (4H3112-bH): -0.698
interaction score (4H2697-bH): 0.106
interaction score (4H3855-bH): -0.295
interaction score (4H3354-bH): 0.334
interaction score (4H953-bH): -0.598
interaction score (4H454-bH): -0.0899
interaction score (4H568-bH): -0.447
interaction score (4H2717-bN): -0.601
interaction score (4H72-bH): 0.142
interaction score (4H967-bH): -0.511
interaction score (4H4001-bH): -1.03
interaction score (4H4001-bN): -0.805
interaction score (4H687-bH): -0.46
interaction score (4H462-bH): -0.599
interaction score (4H3782-bH): 0.165
interaction score (4H3427-bH): -0.323
interaction score (4H1845-bH): 0.142
interaction score (4H575-bA): -1.1
interaction score (4H2729-bH): 0.473
interaction score (4H3189-bH): 0.462
interaction score (4H754-bH): 0.391
interaction score (4H3606-bH): 0.808
Binder: DENQELKKKIEELERKNWELEKKIQELER [4H1845-bH]

Binder: EIQQLEEEISQLEQKNSQLKEKNQQLKYG [P3mS]
interaction score (P5SC2): -2.78
interaction score (P6SC2): -2.5
interaction score (P5SC1): -2.77
interaction score (P5): -2.93
interaction score (P3mS): -3.24
interaction score (P6mS): -2.74
interaction score (P8): -2.54
interaction score (P6): -2.8
interaction score (P8mS): -2.87
interaction score (P9): -2.34
interaction score (P6SC1): -2.8
interaction score (P4mS): 0.221
interaction score (P5mS): -2.69
interaction score (P4): -0.0449
interaction score (P7): -2.64
interaction score (P7mS): -2.96
